Numbering of substitutions follows the chain as printed. In names and notes the source's numbering stands.
B1: NtHPPD-02: nucleotide sequence encoding wild-type Nicotiana tabacum HPPD; vector DBN11750 (nucleic acid)
DNA: ATGGGGAAGCTGGAAACCGTCACTACCACCTCGGCGGCGGCTGCTGATGATTCATCGGAATTAACAACCAACTTCAAGTTGGTTGGTTTCAAAAATTTCATCAGAACAAACCCAAGGTCTGATTTCTTCTCCGTCAAGAGCTTCCACCACATTGAATTCTGGTGCGGTGACGCAACTAACACAGCGCGCCGCTTCTCATGGAGCCTAGGGATGCCAATTGCAGCTAAGAGTGATCTTTCAACAGGAAACAGCGTGCACGCCTCCTACCTCCTCCGGCCCGTAAGCGGTTCTTTACAGTTCCTGTTTACAGCACCATATTCACCTTCTATTTCGACTCCTAGTTCAGCTGCAATCCCATCTTTTTCCACATCTACACATAGGTCTTTCACTACAACACATGGACTGGGTGTTCGTGCCGTCGCCCTCGAGGTGGAGAATGCTTATACTGCCTTCAGTGCTTCTGTCTCCAGAGGCGCCAAGCCAATGTTTGAACCTGTGACAATTGATGAACAAGTAGCAATGGCTGAGGTTCATTTGTACGGCGATGTTGTGCTGCGATTTGTTTCTTATCTCAAGGACGCCGACAACCTGGTCTTCCTGCCGGGGTTTGAGGCCATGGATGAAACTGCTAGTTACAAAGAACTTGATTATGGAATACGGCGTTTGGATCATGCTGTGGGCAATGTTCCAGAACTCGGCCCGGTAGTTGATTACATCAAGAGGTTTACTGGATTTCATGAATTTGCAGAGTTTACCGCTGAAGATGTGGGAACTGCGGAAAGTGGGCTAAACTCCATGGTTCTTGCGAACAATGATGAGACTGTGCTCCTCCCTCTGAATGAGCCTGTTTATGGCACCAAAAGAAAATCTCAGATACAAACATATCTTGAGCATAATGAAGGAGCTGGGGTGCAGCACCTTGCTCTTGTTACTGAAGACATCTTTAAGACTTTGACAGAGATGAGGAAGAGAAGTGGAGTTGGAGGTTTTGAGTTCATGCCTTCCCCCCCGCCGACCTACTACAAGAATTTGAAGAACAGGGCTGGTGACGTCCTCTCAGACGAGCAGATTTTGGCTTGTGAGGAGCTTGGCATCTTGGTAGACCGGGACGACCAGGGGACGCTTCTCCAAATTTTCACAAAACCCGTCGGGGACCGCCCCACCATATTTATTGAGATCATCCAGAGGATAGGCTGCATGCTTAAAGATGGAAAAGGTCAAGTGTACCAGAAGGGTGGTTGTGGTGGGTTTGGCAAAGGAAATTTTTCTGAGCTGTTCAGAAGCATAGAAGAATATGAGAAGACACTGGAAGCAAAACAAGCAAATCAAGTTGCGGCCGCGTGA
modifications: NtHPPD-02 Nucleotide Sequence
notes: vector DBN11750
B2: NtHPPDm-F372A-F383W-02: nucleotide sequence encoding Nicotiana tabacum HPPD with F372A+F383W; vector DBN11753 (nucleic acid)
DNA: B1 DNA with T1135G, T1136C, T1169G, T1170G
modifications: NtHPPDm-F372A-F383W-02 Nucleotide Sequence
notes: vector DBN11753

Tests used:
Type in all cases: in vivo
[1] = system: Arabidopsis thaliana T1 plants; experiment: Topramezone tolerance of transgenic Arabidopsis thaliana T1 plants (spray, bleached leaf area grade, damage score); settings: 7 DAT, Table 4; for Classification and statistics of the grade of pesticide damage: Grade 0 / Classification and statistics of the grade of pesticide damage: Grade 1 / Classification and statistics of the grade of pesticide damage: Grade 2 / Classification and statistics of the grade of pesticide damage: Grade 3: number of plants; for Scores: pesticide damage score 0-100
How it was run: (§1)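 T1 transformants selected by glufosinate; 18-day-old plants, with empty-vector and wild-type controls, sprayed with topramezone (25–200 g ai/ha), isoxaflutole (35–280 g ai/ha) or mesotrione (52.5–420 g ai/ha), water as 0×. Bleached leaf area fraction scored at 7 DAT as grades 0–3.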

[2] = system: Arabidopsis thaliana T1 plants; experiment: Mesotrione tolerance of transgenic Arabidopsis thaliana T1 plants (spray, bleached leaf area grade, damage score); parameters: Scores: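 damage score 0-100 computed as Σ(N×S)/(T×M)×100 over grades 0-3 with higher meaning more damage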; settings: Arabidopsis thaliana T1 plants; for Grade 0 (classification and statistics of the grade of pesticide damage; number of plants) / Grade 1 (classification and statistics of the grade of pesticide damage; number of plants) / Grade 2 (classification and statistics of the grade of pesticide damage; number of plants) / Grade 3 (classification and statistics of the grade of pesticide damage; number of plants): 16 plants
How it was run: as §1

[3] = system: Arabidopsis thaliana T1 plants; experiment: Isoxaflutole tolerance of transgenic Arabidopsis thaliana T1 plants (spray, bleached leaf area grade, damage score); parameters: Scores (pesticide damage): scale not given here; settings: spray, Arabidopsis thaliana T1 plants; for Classification and statistics of the grade of pesticide damage: Grade 0 (number of plants) / Classification and statistics of the grade of pesticide damage: Grade 1 (number of plants) / Classification and statistics of the grade of pesticide damage: Grade 2 (number of plants) / Classification and statistics of the grade of pesticide damage: Grade 3 (number of plants): 16 plants
How it was run: as §1

[4] = isoxaflutole 35 g ai/ha (0.5x field concentration)
[5] = isoxaflutole 70 g ai/ha (1x field concentration)

Molecule	Classification and statistics of the grade of pesticide damage: Grade 0 ([1]; topramezone 25 g ai/ha (1×))	Classification and statistics of the grade of pesticide damage: Grade 1 ([1]; topramezone 25 g ai/ha (1×))	Classification and statistics of the grade of pesticide damage: Grade 2 ([1]; topramezone 25 g ai/ha (1×))	Classification and statistics of the grade of pesticide damage: Grade 3 ([1]; topramezone 25 g ai/ha (1×))	Classification and statistics of the grade of pesticide damage: Grade 0 ([1]; topramezone 100 g ai/ha (4×))	Classification and statistics of the grade of pesticide damage: Grade 1 ([1]; topramezone 100 g ai/ha (4×))	Classification and statistics of the grade of pesticide damage: Grade 2 ([1]; topramezone 100 g ai/ha (4×))	Classification and statistics of the grade of pesticide damage: Grade 3 ([1]; topramezone 100 g ai/ha (4×))	Scores ([1]; topramezone 25 g ai/ha (1×))	Scores ([1]; topramezone 100 g ai/ha (4×))	Resistance evaluation ([1]; topramezone 25 g ai/ha (1×))	Resistance evaluation ([1]; topramezone 100 g ai/ha (4×))	Resistance evaluation ([2]; mesotrione 52.5 g ai/ha)	Scores ([2]; mesotrione 52.5 g ai/ha)	Grade 0 (classification and statistics of the grade of pesticide damage; number of plants) ([2]; mesotrione 52.5 g ai/ha)	Grade 1 (classification and statistics of the grade of pesticide damage; number of plants) ([2]; mesotrione 52.5 g ai/ha)	Grade 2 (classification and statistics of the grade of pesticide damage; number of plants) ([2]; mesotrione 52.5 g ai/ha)	Grade 3 (classification and statistics of the grade of pesticide damage; number of plants) ([2]; mesotrione 52.5 g ai/ha)	Resistance evaluation ([2]; mesotrione 105 g ai/ha)	Scores ([2]; mesotrione 105 g ai/ha)	also measured
B1	0	0	0	16	0	0	0	16	100	100	non-resistant (non-resistant plants (scores 68-100))	non-resistant (non-resistant plants (scores 68-100))	Non-resistant	100	0	0	0	16	Non-resistant	100	Grade 0 (classification and statistics of the grade of pesticide damage; number of plants) ([2]; mesotrione 105 g ai/ha): 0; Grade 1 (classification and statistics of the grade of pesticide damage; number of plants) ([2]; mesotrione 105 g ai/ha): 0; Grade 2 (classification and statistics of the grade of pesticide damage; number of plants) ([2]; mesotrione 105 g ai/ha): 0; Grade 3 (classification and statistics of the grade of pesticide damage; number of plants) ([2]; mesotrione 105 g ai/ha): 16; Resistance evaluation [3, 4]: Non-resistant; Scores (pesticide damage) [3, 4]: 100; Classification and statistics of the grade of pesticide damage: Grade 0 (number of plants) [3, 4]: 0; Classification and statistics of the grade of pesticide damage: Grade 1 (number of plants) [3, 4]: 0; Classification and statistics of the grade of pesticide damage: Grade 2 (number of plants) [3, 4]: 0; Classification and statistics of the grade of pesticide damage: Grade 3 (number of plants) [3, 4]: 16; Resistance evaluation [3, 5]: Non-resistant; Scores (pesticide damage) [3, 5]: 100; Classification and statistics of the grade of pesticide damage: Grade 0 (number of plants) [3, 5]: 0; Classification and statistics of the grade of pesticide damage: Grade 1 (number of plants) [3, 5]: 0; Classification and statistics of the grade of pesticide damage: Grade 2 (number of plants) [3, 5]: 0; Classification and statistics of the grade of pesticide damage: Grade 3 (number of plants) [3, 5]: 16
B2	2	13	1	0	0	1	13	2	31	69	moderately	non-resistant (non-resistant plants (scores 68-100))	Poorly resistant	35	1	13	2	0	Non-resistant	69	Grade 0 (classification and statistics of the grade of pesticide damage; number of plants) ([2]; mesotrione 105 g ai/ha): 0; Grade 1 (classification and statistics of the grade of pesticide damage; number of plants) ([2]; mesotrione 105 g ai/ha): 1; Grade 2 (classification and statistics of the grade of pesticide damage; number of plants) ([2]; mesotrione 105 g ai/ha): 13; Grade 3 (classification and statistics of the grade of pesticide damage; number of plants) ([2]; mesotrione 105 g ai/ha): 2; Resistance evaluation [3, 4]: Moderately; Scores (pesticide damage) [3, 4]: 33; Classification and statistics of the grade of pesticide damage: Grade 0 (number of plants) [3, 4]: 1; Classification and statistics of the grade of pesticide damage: Grade 1 (number of plants) [3, 4]: 14; Classification and statistics of the grade of pesticide damage: Grade 2 (number of plants) [3, 4]: 1; Classification and statistics of the grade of pesticide damage: Grade 3 (number of plants) [3, 4]: 0; Resistance evaluation [3, 5]: Poorly; Scores (pesticide damage) [3, 5]: 65; Classification and statistics of the grade of pesticide damage: Grade 0 (number of plants) [3, 5]: 0; Classification and statistics of the grade of pesticide damage: Grade 1 (number of plants) [3, 5]: 3; Classification and statistics of the grade of pesticide damage: Grade 2 (number of plants) [3, 5]: 11; Classification and statistics of the grade of pesticide damage: Grade 3 (number of plants) [3, 5]: 2
